What was measured:
[1] = target: T1, Mouse IL-11 protein in tissue lysates of C57Bl/6J mice (mouse, UniProt P47873 22-199, limits assumed); assay: western blot of mouse liver lysates (SDS-PAGE, PVDF), X203 as primary antibody, anti-mouse HRP and ECL detection
T1 sequence (looked up): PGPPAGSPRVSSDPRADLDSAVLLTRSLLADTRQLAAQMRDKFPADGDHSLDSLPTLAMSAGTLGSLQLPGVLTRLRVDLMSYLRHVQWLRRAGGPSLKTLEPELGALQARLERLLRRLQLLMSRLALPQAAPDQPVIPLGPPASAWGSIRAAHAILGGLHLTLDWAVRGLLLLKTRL
Description: Briefly, livers were harvested from mice and homogenized in radioimmunoprecipitation assay (RIPA) lysis and Extraction Buffer (ThermoFisher Scientific) containing protease and phosphatase inhibitors (Roche), followed by centrifugation to clear the lysate. Protein concentrations were determined by Bradford assay (Bio-Rad). Equal amounts of protein lysates were separated by SDS-PAGE, transferred to PVDF membranes, blocked for 1 h with 3% BSA, and incubated overnight with X203 (1:2000) or anti-GAPDH (1:1000, CST). Protein bands were visualized using the ECL detection system (Pierce) with the appropriate secondary antibodies: anti-mouse HRP and anti-rabbit HRP (1:5000, CST). […]

[2] = system: IL-11 signalling; conditions: binds IL-11Rα, engagement of gp130 homodimer fails; cited from earlier work
[3] = system: Primary human cardiac fibroblasts; assay: IL-11 stimulation time course, western blot; format: cell-based; conditions: IL-11 10 ng/ml, 15 mins, 2, 4, 6 or 24 hours
Description: FIG. 15. Western blot image showing the levels of p-LKB1, LKB1, p-mTOR, mTOR in primary human cardiac fibroblasts that are stimulated with IL11 (10 ng/ml), for 15 minutes, 2 hours, 4 hours, 6 hours, or 24 hours.
Primary human cardiac fibroblasts were stimulated with IL-11 (10 ng/ml), for 15 mins, 2, 4, 6, or 24 hours and the levels of phosphorylated LKB1 (p-LKB1), LKB1, phosphorylated mTOR (p-mTOR) and mTOR were measured by western blot.

[4] = system: A549 cells; assay: IL-11 stimulation of A549 cells overexpressing human LKB1, western blot; format: cell-based; conditions: IL11 10 ng/ml; AAV8 human LKB1
Description: FIG. 16. IL-11 stimulates ERK-mediated phosphorylation of LKB1 serine 325(S325) and P90RSK-mediated phosphorylation of LKB1 serine 428 (S428) with subsequent inactivation of AMPK and activation of mTOR, P70RSK and S6RP. (16A) A549 cells were infected with AAV8 encoding human LKB1 (multiplicity of infection=20) for 24 hours and then stimulated with IL11 (10 ng/ml) for the indicated times (15 minutes, 2 hours, 4 hours, 6 hours, or 24 hours). Cell lysates were immunoblotted for the proteins shown. (16B) Schematic of activation of ERK (directly) and P90RSK (indirectly) by IL-11-mediated signalling and downstream effects on hallmarks of ageing. P or p; phosphorylated amino acid.
To determine the mechanism through which IL-11 stimulates phosphorylation of LKB1, A549 cells were engineered to overexpress human LKB1 (AA8-LKB1 in FIG. 16A) and treated with IL-11.

[5] = system: Human hepatic stellate cells; assay: IL-11 stimulation of cells overexpressing wild-type LKB1, western blot; format: cell-based; conditions: IL11 10 ng/ml, 2 hours
Description: (§1) FIG. 17. Human hepatic stellate cells (17A) and hepatocytes (17B) were infected with AAV8 encoding human LKB1 (multiplicity of infection=20) for 24 hours and then stimulated with IL11 (10 ng/ml) for 2 hours. Cell lysates were immunoblotted for the proteins shown.
(§2) Human hepatic stellate cells (FIG. 17A) and human hepatocytes (FIG. 17B) were engineered to overexpress the wild-type LKB1 and a double mutant S325A, S428A (DM-LKB1). FIGS. 17A and 17B confirm that stimulation with IL-11 induces phosphorylation at […] in the WT LKB1 cells. As expected, phosphorylation is not observed in the double mutant LKB1 cells.

[6] = system: human hepatocytes; assay: as above; format: cell-based; conditions: IL11 10 ng/ml, 2 hours
Description: as §1, §2

[7] = system: Primary human hepatic stellate cells; assay: IL-11 stimulation in the presence of DMSO or U0126, western blot; format: cell-based; conditions: IL-11 treatment 24 hours
Description: FIG. 21. Western blot image showing the levels of p-ERK, ERK, p-P90RSK, P90RSK, p-LKB1, LKB1, p-AMPK, AMPK, p-mTOR, mTOR, p-p70S6K, p70S6K, p-S6RP, S6RP, SMA, and GAPDH in primary human hepatic stellate cells that are unstimulated (BL+DMSO) or stimulated for 24 hours with IL11 in the presence DMSO or U0126 (10 μM).
(§3) Primary human hepatic stellate cells and human hepatocytes were stimulated for 24 hours with IL-11 in the presence DMSO or U0126. As discussed in Example 4.4, the inventors observed that IL-11 treatment stimulates p-mTOR, p-70S6K and p-S6RP. In line with the inventors' hypothesis, administration of U0126 to IL-11-stimulated cells prevents ERK-mediated inactivation of LKB1/AMPK that stops IL11-induced mTORC1/P70S6K activation (FIG. 21 and FIG. 22, respectively).

[8] = system: human hepatocytes; assay: as above; format: cell-based; conditions: IL-11 treatment 24 hours
Description: FIG. 22. Western blot image showing the levels of p-ERK, ERK, p-P90RSK, P90RSK, p-LKB1, LKB1, p-AMPK, AMPK, p-mTOR, mTOR, p-p70S6K, p70S6K, p-S6RP, S6RP in primary human hepatocytes that are unstimulated (BL+DMSO) or stimulated for 24 hours with IL11 in the presence DMSO or U0126 (10 μM).
as §3

[9] = system: Primary human hepatic stellate cells (HSCs); assay: Increasing concentrations of IL-11 or IL-6, western blot p-LKB1/p-AMPK; format: cell-based; conditions: 24 hours; p-LKB1, p-AMPK
Description: (§4) FIG. 23. Western blot image showing the levels of p-LKB1, LKB1, p-AMPK, AMPK in primary human hepatocytes or primary human hepatic stellate cells that are unstimulated (BL) or stimulated for 24 hours with increasing concentrations (1.25, 2.5, 5, 10 or 20 ng/ml) of IL-11 or IL-6.
(§5) Primary human hepatic stellate cells (HSCs) and human hepatocytes were stimulated for 24 hours with increasing concentrations (1.25-20 ng/ml) of IL-11 or IL-6. […] The effect of IL-11 on these markers is observable at concentrations as low as 1.25 ng/ml in both HSCs and hepatocytes.

[10] = system: human hepatocytes; assay: as above; format: cell-based; conditions: 24 hours; p-LKB1, p-AMPK
Description: as §4, §5

[11] = target: T2, IL-11Rα (Homo sapiens, UniProt Q14626); conditions: low affinity binding to IL-11Rα alone; cited from earlier work
T2 sequence (Q14626 23-422): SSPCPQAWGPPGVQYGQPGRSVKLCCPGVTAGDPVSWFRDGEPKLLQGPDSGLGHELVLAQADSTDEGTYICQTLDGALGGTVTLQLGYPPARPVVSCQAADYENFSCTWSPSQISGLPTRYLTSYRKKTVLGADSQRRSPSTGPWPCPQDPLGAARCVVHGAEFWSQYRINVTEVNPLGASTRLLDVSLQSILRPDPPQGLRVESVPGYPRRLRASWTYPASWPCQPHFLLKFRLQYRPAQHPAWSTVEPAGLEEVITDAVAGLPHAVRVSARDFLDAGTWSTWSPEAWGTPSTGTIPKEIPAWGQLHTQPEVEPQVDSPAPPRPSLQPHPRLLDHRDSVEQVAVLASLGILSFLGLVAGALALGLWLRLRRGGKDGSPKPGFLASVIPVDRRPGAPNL

B1: X203, mouse anti-mouse IL-11 IgG (anti-IL-11 antagonist antibody) (antibody, V domains shown)
VH: EVQLQQSGPELVKPGASVKIPCKASGYTFTDYNMDWVKQSHGKSLEWIGDINPHNGGPIYNQKFTGKATLTVDKSSSTAYMELRSLTSEDTAVYYCARGELGHWYFDVWGTGTTVTVSS
VL: DIVLTQSPASLAVSLGQRATISCRASKSVSTSGYSYIHWYQQKPGQPPKLLIYLASNLDSGVPARFSGSGSGTDFTLNIHPVEEEDAATYYCQHSRDLPPTFGGGTKLEIK
notes: also called Enx203; anti-IL11 (X203)
- binding result [1]: binds

B2: W147A: IL-11 antagonist in which amino acid 147 is mutated from a tryptophan to an alanine (protein, UniProt P20809 22-199, looked up, variant W147A)
Interleukin-11: PGPPPGPPRVSPDPRAELDSTVLLTRSLLADTRQLAAQLRDKFPADGDHNLDSLPTLAMSAGALGALQLPGVLTRLRADLLSYLRHVQWLRRAGGSSLKTLEPELGTLQARLDRLLRRLQLLMSRLALPQPPPDPPAPPLAPPSSAAGGIRAAHAILGGLHLTLDWAVRGLLLLKTRL
- blockade of IL-11 signalling [2]: efficient blockade

B3: IL-11: Interleukin 11, pleiotropic cytokine of the IL-6 family, used to stimulate cells (protein)
chain: T1 sequence (looked up)
- level of phosphorylated LKB1 and phosphorylated mTOR [3]: increases
- ERK-mediated phosphorylation of LKB1 Serine 325 (S325) and P90RSK-mediated phosphorylation of LKB1 serine 428 (S428) [4]: stimulates
- phosphorylation at S428 and S325 in the WT LKB1 cells [5]: induces
- phosphorylation at S428 and S325 in the WT LKB1 cells [6]: induces
- p-mTOR, p-70S6K and p-S6RP [7]: stimulates
- p-mTOR, p-70S6K and p-S6RP [8]: stimulates
- lowest concentration at which the effect on these markers is observable [9]: 1.25 ng/mL
- lowest concentration at which the effect on these markers is observable [10]: 1.25 ng/mL
- Kd [11]: ~22 nM

Source: patent US20230399393A1, “METHODS TO EXTEND HEALTH-SPAN AND TREAT AGE-RELATED DISEASES” (National University of Singapore, priority 2020, published 2023)
